# According to publication doi:10.1101/2024.09.06.611148:
# Target: Alexa-647 NHS-labelled tubulin (UniProt P02550)
# Test: MST
# Sequence of Alexa-647 NHS-labelled tubulin (P02550 whole entry, looked up): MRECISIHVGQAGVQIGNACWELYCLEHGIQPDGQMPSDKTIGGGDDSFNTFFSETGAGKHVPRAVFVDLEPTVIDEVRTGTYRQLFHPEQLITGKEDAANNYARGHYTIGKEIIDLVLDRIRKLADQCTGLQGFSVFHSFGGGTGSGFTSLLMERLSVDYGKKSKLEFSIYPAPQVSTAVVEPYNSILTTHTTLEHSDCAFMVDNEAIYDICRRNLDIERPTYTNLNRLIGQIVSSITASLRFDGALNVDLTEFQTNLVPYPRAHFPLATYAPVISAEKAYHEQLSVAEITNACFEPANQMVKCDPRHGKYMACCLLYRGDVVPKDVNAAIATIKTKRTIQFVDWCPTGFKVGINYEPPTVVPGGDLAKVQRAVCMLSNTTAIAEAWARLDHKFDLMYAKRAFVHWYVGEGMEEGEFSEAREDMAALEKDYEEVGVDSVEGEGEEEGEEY
substance,measurement,value
recombinant HYC2 (GST-HYC2 or HYC2-6XHis) (from UniProt Q9FMI8 1-448) (natural protein),Kd,0.69 µM
